Paper PMC6118821

Target: Nucleosome with symmetrical linkers of 14 base pairs (nucleosome of the 2Chd1:1Nucleosome complex) (Xenopus laevis)
Test: cryo-EM structure; 2:1 complex of ScChd1(1-1305Δ57–88) and a nucleosome with symmetrical 14 bp linkers, ADP-BeFx; envelope at 10-11 Å, two Chd1 and a nucleosome rigid-body docked

For “ScChd1(1-1305Δ57–88) (from UniProt P32657 1-1305) (enzyme)”, the stoichiometry N was 2.
